Results as given in paper PMC11462610, “PpBBX32 and PpZAT5 modulate temperature-dependent and tissue-specific anthocyanin accumulation in peach fruit”.

Legend:
[1] = target: T1, PpZAT5 (Prunus persica, UniProt A0A251NAP4 1-283); assay: EMSA; shift weakened by increasing cold probe; LightShift Chemiluminescent EMSA kit (Thermo), biotin-labeled probes; buffer, salt, pH and temperature not stated; conditions: protein: recombinant; tags: N-terminal His-trigger factor (pColdTF fusion); label: biotin; blunt
T1 sequence: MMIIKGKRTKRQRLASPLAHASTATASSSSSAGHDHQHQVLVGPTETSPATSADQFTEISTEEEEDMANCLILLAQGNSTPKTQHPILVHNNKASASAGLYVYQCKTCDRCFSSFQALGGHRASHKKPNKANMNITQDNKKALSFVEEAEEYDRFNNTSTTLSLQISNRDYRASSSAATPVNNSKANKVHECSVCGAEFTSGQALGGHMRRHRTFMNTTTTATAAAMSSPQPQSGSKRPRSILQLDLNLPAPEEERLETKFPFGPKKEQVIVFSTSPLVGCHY

[2] = target: T2, PpBBX32 (Prunus persica, UniProt A0A251PTV0 1-264); assay: as above; conditions: protein: recombinant; tags: N-terminal His-trigger factor (pColdTF fusion); label: biotin; blunt
T2 sequence: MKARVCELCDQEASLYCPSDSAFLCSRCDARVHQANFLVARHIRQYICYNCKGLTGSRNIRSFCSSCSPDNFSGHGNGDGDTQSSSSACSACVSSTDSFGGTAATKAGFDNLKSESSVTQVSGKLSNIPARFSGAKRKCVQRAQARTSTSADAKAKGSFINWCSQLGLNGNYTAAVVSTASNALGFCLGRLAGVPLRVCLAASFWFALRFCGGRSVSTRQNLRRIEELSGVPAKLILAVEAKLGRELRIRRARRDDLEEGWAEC

[3] = target: T1, PpZAT5; assay: EMSA; LightShift Chemiluminescent EMSA kit (Thermo), biotin-labeled probes; buffer, salt, pH and temperature not stated; conditions: protein: recombinant; tags: N-terminal His-trigger factor (pColdTF fusion); blunt

B1: proPpMYB10.1 ACT core element 7 (dsDNA)
DNA 1: TCTTAGCTAACTGTTACTGTTATCAAG
DNA 2: CTTGATAACAGTAACAGTTAGCTAAGA
Question: Does B1 bind [1]?
Answer: Result: binds

B2: proPpMYB10.1 G-box1&2 (dsDNA)
DNA 1: CAGCTGTGATACGTGAACCACACGTGCTGACACTA
DNA 2: TAGTGTCAGCACGTGTGGTTCACGTATCACAGCTG
Question: Does B2 bind [2]?
Answer: Result: binds

B3: proPpMYB10.1 ACT core element 7 mutant (dsDNA)
DNA 1: TCTTAGCTAGTTACCCTAGTTATCAAG
DNA 2: CTTGATAACTAGGGTAACTAGCTAAGA
Question: Does B3 bind [3]?
Answer: Result: no binding
